Patent publication US20100184613A1
Where no end group is shown, it is not given here.

Tests used:
[1] = target: antibody C1, specific for the CRP-derived 8-mer PET sequence YEVQGEVF; assay: peptide competition ELISA; soluble peptide competes with coated target peptide for C1
[2] = target: antibody C1, specific for the CRP-derived 8-mer PET sequence YEVQGEVF; assay: peptide competition ELISA
[3] = target: antibody P1, specific for the PSA-derived 8-mer PET sequence EPAELTDA; assay: peptide competition ELISA; soluble peptide competes with coated target peptide for P1
[4] = target: antibody P1, specific for the PSA-derived 8-mer PET sequence EPAELTDA; assay: peptide competition ELISA

## VEVNGEVF [nearest-neighbor 8-mer peptide VEVNGEVF]
[1]
  IC50: > 1000 µM
[2]
  fold higher concentration without effect, against the antigen PET YEVQGEVF: > 1000 fold

## EPAELTDA (not fully specified) [PSA-derived 8-mer PET peptide EPAELTDA]
[3]
  IC50: 0.04 µM

## YEVQGEVF [CRP-derived 8-mer PET peptide YEVQGEVF]
[1]
  IC50: 1 µM

## YEVLGEEF [nearest-neighbor 8-mer peptide YEVLGEEF]
[1]
  IC50: > 1000 µM
[2]
  fold higher concentration without effect, against the antigen PET YEVQGEVF: > 1000 fold

## EPVELTSA [nearest-neighbor 8-mer peptide EPVELTSA]
[3]
  IC50: > 1000 µM
[4]
  fold higher concentration without effect, against the antigen PET EPAELTDA: 25000 fold

## DPTQLTDA [nearest-neighbor 8-mer peptide DPTQLTDA]
[3]
  IC50: > 1000 µM
[4]
  fold higher concentration without effect, against the antigen PET EPAELTDA: 25000 fold
